Results from patent US8278415B2, “Dimeric high affinity EGFR constructs and uses thereof” (Centocor, Inc., priority 2006, dated 2012).
Values after ≈ are worked out from the molar mass of the structure shown. Read-outs that look alike come from different tables or passages of the source.

Assays:
MDA-MB-468 = assay: cells; conditions: Homo sapiens
sEGFR-MMB [1] = target: T1, sEGFR-MMB (Homo sapiens, UniProt P00533); assay: Competitive phage ELISA (EGF, TGF-α, IMC-c225 as competitive agent); type: binding
T1 construct: made in house; host or cells: HEK 293E
Method: (§1) Phage were amplified in XL-1 Blue host cells and purified by precipitation with 6% polyethylene glycol-8000/0.5 M sodium chloride. The precipitated phage were resuspended in phosphate-buffered saline in a volume that was 1/100th the original culture volume. […] The binding reaction was incubated for 1 hr at room temperature, and then bound phage were detected with anti-M13/HRP as above. For ELISAs with biotinylated receptors, streptavidin at 5 μg/ml was coated in the wells overnight at 4° C. […] The wells were rinsed with TBS-T and then blocked with Starting Block. Bound phage were washed and detected with anti-M13/HRP as described above.

Control-MMB = Control-MMB (Homo sapiens, UniProt P01857); assay: Phage ELISA on Control-MMB; type: binding
Method: (§2) The protein solution was removed and wells were rinsed twice with Tris-Buffered Saline containing 0.05% Tween-20 (TBS-T) using a plate washer (Embla). The wells were blocked with Starting Block in TBS for 1 hr at room temperature and rinsed twice with TBS-T. An equal volume of phage supernatant and Starting Block in TBS were incubated in the wells for 1 hr at room temperature, and the wells were rinsed five times with TBS-T. Anti-M13/horseradish peroxidase conjugate (Amersham), diluted 1:5000 in Starting Block in TBS, was added into the wells and incubated for 1 hour at room temperature, and then the wells were rinsed five times with TBS-T. Finally, chemiluminescent peroxidase substrate (Roche) was added to the wells, and chemiluminescence was measured on a Tecan plate reader.
The plates were held overnight at room temperature, washed twice with TBST (0.5M Tris Base, 9% NaCl, 0.05% tween, pH 7.6), and loaded with 200 μL per well of Starting Block (Pierce). […] The plates were held at room temperature for 1.5 hours for blocking Plates were then washed twice with TBST and phage were added. […] After a one-hour incubation the plates were washed five times with TBST, 100 μL of POD (BM Chemiluminescence ELISA substrate; Roche Applied Science) was added, and chemiluminescene recorded.

MCF-7 = assay: Flow cytometry of phage binding to MCF-7 cells; type: cell-based, human
Method: (§3) To evaluate whether the selected peptides from phage display can bind to tumor cells that overexpress EGFR, A431 cells (epidermoid cancer) or an EGFR negative tumor cells, MCF-7 (breast carcinoma) were tested in a flow cytometry assay using fluorescence detection (FACS). For P145, PP146 and their control phage, 2.5×10^5 A431 cells were resuspended in 25 μl of flow staining buffer (dPBS with 1% BSA, 0.09% sodium azide) and incubated with 25 μl of phage clones for 1 hour at 4° C. […] Cells were washed two times with flow staining buffer and then incubated with 0.5 μg of mouse anti M13/fd/Fl filamentous phages monoclonal antibody conjugated to FITC (Fitzgerald Industries International, Inc. Concord, Mass.) for 45 minutes at 4° C. Cells were washed two times with flow staining buffer and acquired by FACSCalibur (BD, Franklin Lakes, N.J.) to detect bound phages on tumor cell surface.
A431 cells (epidermoid cancer) which overexpress EGFR and EGFR-negative tumor cells, MCF-7 (breast carcinoma) were tested in a flow cytometry assay. Tumor cells (A431 and MCF-7) were harvested with 0.25% tyrpsin-EDTA and washed twice with FACS staining buffer (dPBS with 1% BSA, 0.09% sodium azide). […]

EGF + sEGFR-MMB Complex = target: T2, EGF + sEGFR-MMB Complex (Homo sapiens, UniProt P00533); assay: Phage ELISA on sEGFR-MMB in the presence of EGF; type: binding
T2 construct: made in house
Method: (§4) The plates were held overnight at room temperature, washed twice with TBST (0.5M Tris Base, 9% NaCl, 0.05% tween, pH 7.6), and loaded with 200 μL per well of Starting Block (Pierce). […] The plates were held at room temperature for 1.5 hours for blocking Plates were then washed twice with TBST and phage were added. The phage solutions were crude phage supernatant from overnight cultures diluted four-fold with Starting Block. After a one-hour incubation, the plates were washed thrice with TBST and 100 μL of a 1:5000 dilution of phage binding antibody conjugate (α-M13-HRP) was added to the wells. EGF was added if applicable. After a one-hour incubation the plates were washed five times with TBST, 100 μL of POD (BM Chemiluminescence ELISA substrate; Roche Applied Science) was added, and chemiluminescene recorded.

sEGFR-MMB [2] = target: T1, sEGFR-MMB; assay: Phage ELISA on coated sEGFR-MMB; type: binding
Method: as §2, §1, §4

A431 cells = assay: Flow cytometry of phage binding to A431 cells; type: cell-based, human; conditions: for binding to A431 tumor cells: anti-phage-FITC
Method: as §3
A431 cells (epidermoid cancer) which overexpress EGFR and EGFR-negative tumor cells, MCF-7 (breast carcinoma) were tested in a flow cytometry assay. Tumor cells (A431 and MCF-7) were harvested with 0.25% tyrpsin-EDTA and washed twice with FACS staining buffer (dPBS with 1% BSA, 0.09% sodium azide). […] After binding at 4° C., cells were washed twice with FACS staining buffer to remove unbound phage and then incubated with 0.5 μg of mouse anti-M13 monoclonal antibody conjugated to FITC (Fitzgerald Industries International, Inc. Concord, Mass.) for 1 hour at 4° C. Mouse anti-M13-FITC incubated with cells without phage was used as background binding. Cells were washed twice with FACS staining buffer to remove unbound detection antibody.

sEGFR-His6 = target: T3, sEGFR-His6 (Homo sapiens, UniProt P00533); assay: Phage ELISA on coated sEGFR-His6; type: binding
T3 construct: made in house; host or cells: HEK293E
Method: as §4

b-sEGFR-MMB = target: T4, b-sEGFR-MMB (Homo sapiens, UniProt P00533); assay: Phage ELISA on biotinylated sEGFR-MMB captured on streptavidin; type: binding
T4 construct: made in house; host or cells: HEK 293E
Method: as §1

b-sEGFR-His = target: T5, b-sEGFR-His (Homo sapiens, UniProt P00533); assay: Phage ELISA on biotinylated sEGFR-His6 captured on streptavidin; type: binding; conditions: biotinylated and immobilized on streptavidin
T5 construct: made in house; host or cells: HEK293E
Method: as §1

Molecule | competition with EGF, TGF-α, IMC-c225 (in words) (sEGFR-MMB [1]) | binding to sEGFR-MMB (in words) (sEGFR-MMB [2]) | binding to A431 tumor cells (A431 cells) | binding to sEGFR-His6 (in words) (b-sEGFR-His) | binding to A431 relative to positive control EGF phage (A431 cells) | other results
COc1cccc2c1C(=O)c1c(O)c3c(c(O)c1C2=O)C[C@@](O)(C(=O)CO)C[C@@H]3O[C@H]1C[C@H](N)[C@H](O)[C@H](C)O1 [Doxorubicin] | – | – | – | – | – | IC50 (MDA-MB-468; MDA-MB-468, read-out: IC50 D4): 2.5 mg/L (≈ 4.6 µM); IC50 (MDA-MB-468; MDA-MB-468, read-out: IC50 D6): < 1.6 mg/L
DPCTWEVWGRECLQ [P190] | did not compete with EGF or TGF-alpha | binds weakly | bind to A431 | – | – | binding to Control-MMB (in words) (Control-MMB): fails to bind; binding to MCF-7 (MCF-7): not to MCF-7; binding to dimeric EGFR in the presence of EGF or TGF-a (EGF + sEGFR-MMB Complex; pIX display): increased in the presence of EGF or TGF-a; binding to the complex between EGF and sEGFR-MMB (in words) (EGF + sEGFR-MMB Complex; phage ELISA): binds well; Relative Signal (EGF + sEGFR-MMB Complex; phage ELISA, construct SEGFR-MMB + EGF): 29408 ± 259; Relative Signal (sEGFR-MMB [2]; construct SEGFR-MMB): 3937 ± 335; binding to A431 cells in the presence of EGF (A431 cells): increased; binding to A431 cells in the presence of EGF and cetuximab (A431 cells): decreases; binding to sEGFR-His6 (in words) (sEGFR-His6; coated monomeric sEGFR): virtually no binding; Relative Signal (sEGFR-His6; construct sEGFR-His6): 6
GPCVLIRDYYLLCLE (Random peptide) [P179] | – | bound sEGFR-MMB when it was passively immobilized in ELISA wells | – | – | – | binding to biotinylated sEGFR-MMB captured on streptavidin (in words) (b-sEGFR-MMB): not biotinylated sEGFR-MMB that had been captured on streptavidin
KTCVSTTFDLWFVCFA (Random peptide) [P176] | competitive with IMC-c225 (cetuximab), EGF, and TGF-α | bound both sEGFR-MMB and sEGFR-His6 | displayed binding to A431 tumor cells | bound both sEGFR-MMB and sEGFR-His6 | comparable to that by a positive control phage that displayed EGF on pIX | –
LPDDSLPELICKVRG (Random peptide) [P175] | did not compete with EGFR ligands | bound sEGFR-MMB | – | not sEGFR-His6 | – | –
SGCLDALWQCVY (Random peptide) [P174] | not inhibited by the EGFR ligands tested | bound both sEGFR-MMB and sEGFR-His6 | displayed binding to A431 tumor cells | bound both sEGFR-MMB and sEGFR-His6 | comparable to that by a positive control phage that displayed EGF on pIX | –
TLCRSFFHPLCYA (Random peptide) [P146] | – | – | displayed binding to A431 tumor cells | – | weaker than that exhibited by a positive control phage that displayed EGF on pIII | –
VLCHRYYHPICYT [P145] | – | – | displayed binding to A431 tumor cells | – | weaker than that exhibited by a positive control phage that displayed EGF on pIII | –
